Assay results as given in patent publication CN102167743A (BAIMAIBO PHARMACEUTICAL CO LTD, dated 2011).

Target: T1, EGFR (UniProt P00533 25-645, limits assumed)
T1 construct: also called 表皮生长因子受体
Assay: not described (summary of experimental results; compared with C225, 2F8 and 3C6)

B1: 全人源抗EGFR抗体15H8 (antibody, human IgG1, kappa, V domains shown)
VH: EVQLVESGGGLVQPGGSLRLSCAASGFTFSSYAMHWVRQAPGKGLEYVSAISSNGGSTYYANSVKGRFTISRDNSKNTLYLQMGSLRAEDMAVYYCAREGYSSSWYHNWFDSWGQGTLVTVSS
VL: DIVMTQTPLSLPVTPGEPASISCRSSQSLLDSDDGNTYLDWYLQKPGQSPQLLIYTLSYRASGVPDRFSGSGSGTDFTLKISRVEAEDVGVYYCMQRIEFPSLYTFGQGTKLEIKR
notes: Whole human antibody expressed in CHO-K1 and purified on Protein A. The expression genes carry a signal peptide, printed only as nucleotides; also called 15H8抗体; 全人源抗体15H8
- binding result: binds
